Data taken from patent US10400249B2, “HPPD variants and methods of use” (priority 2014, dated 2019).

Tested on: Pseudomonas fluorescens HPPD protein
Assay: OD assay: HPPD activity and pI50 from HPP remaining after derivatisation with DNP
Format: biochemical
Conditions: for Activity DeltaE/24 min μg Protein: HPPD enzyme activity of the clone; for tolerance (pI50) DKN: inhibitor diketonitrile (DKN), negative log of molar concentration; for tolerance (pI50) MST: inhibitor mesotrione (MST); for tolerance (pI50) Cmpd. 2: inhibitor Cmpd. 2; for tolerance (pI50) TBT: inhibitor tembotrione (TBT)
Experimental: HPPD proteins were produced and purified as described in WO2011/076882. The activity of HPPD proteins in absence or presence of HPPD inhibitors was determined using either the so called OD assay or the HGD assay.
• a) The OD assay: The HPPD activity was determined colourimetrically by measuring the amount of HPP remaining in the assay mixture at the end of the incubation period after derivatisation of HPP with 2,4-dinitrophenylhydrazine (DNP) to form an amber-brown colored 2,4-dinitrophenylhydrazone under alkaline conditions. The assay was carried out at room temperature in Greiner F-bottom 96 well microplates. The assay mixture contained 50 mM Tris-HCl pH 7.8, 0.5 mM HPP, 10 mM ascorbate, 650 units of catalase and appropriate amounts of purified HPPD enzyme in a total assay volume of 100 μl. The reaction was started by the addition of enzyme. After an incubation time of 24 minutes, the reaction was stopped by the addition of 50 μl of a solution of 0.04% DNP dissolved in 3.8 N HCl. After a further 15-minute incubation period 100 μl of a 5 N KOH solution was added to the reaction mixture and the amount of unconsumed HPP was measured photometrically at 405 nm. Enzyme activity was calculated as the difference in E405 between assays lacking enzyme (negative control) and the enzyme containing assays (ΔE405=E405(negative control)−E405). Enzyme activity (nmol substrate consumed per min) was calculated from a calibration curve generated from HPP. pI50-values (the negative log value of the concentration of inhibitor necessary to inhibit 50% of the enzyme activity in molar concentration were determined from dose-response plots of HPPD activity versus inhibitor concentration tested (5.0×10^−6, 1.0×10^−5, 2.5×10^−5, 4.0×10^−5, 7.0×10^−5, 1.0×10^−4, 2.0×10^−4 and 5.0×10^−4M) using the 4 Parameter Logistic Model or Sigmoidal Dose-Response Model of the ID Business Solutions Ltd. XLfit software suite. The result “>5.6” means that the inhibition at the lowest inhibitor concentration tested was higher than 85% and the pI50-value could therefore not be precisely calculated within in the range of concentration of inhibitor tested. The result “<2.5” means that the inhibition at the highest inhibitor concentration tested was lower than 25% and the pI50-value could therefore not be precisely calculated within in the range of concentration of inhibitor tested. “n.d.” means not determined. • b) The HGD assay: With the HGD assay HPPD activity was measured at room temperature by adding appropriate amounts of HPPD to a solution of 200 mM Tris-HCl pH 7.6, 10 mM ascorbate, 20 μM FeSO4, 650 units of catalase, 8 μg HGA dioxygenase (HGA: homogentisate) and 600 μM HPP in a total volume of 1 ml. Initial reaction rates in the absence or presence of inhibitors were determined from the increase in absorbance at 318 nm due to the formation of maleylacetoacetate (ε318=11,900 M−1 cm-1). pI50-values (the negative log value of the concentration of inhibitor necessary to inhibit 50% of the enzyme activity in molar concentration were determined from dose-response plots of HPPD activity versus inhibitor concentration tested using the 4 Parameter Logistic Model or Sigmoidal Dose-Response Model of the ID Business Solutions Ltd. XLfit software suite. Due to the UV absorption of the HPPD inhibitors tested, inhibitor concentrations >100 μM could not be tested. The result “<4” means that the inhibition at 100 μM inhibitor concentration was lower than 25% and the pI50-value could therefore not be precisely calculated within in the range of concentration of inhibitor tested. “n.d.” means not determined. The HGD assay allowed to continuously follow HPPD-catalyzed HGA formation over time was therefore used to determine the inhibition type of the HPPD inhibitors tested. […] When in the presence of an inhibitor the HPPD activity was inhibited but the inhibition was found not to […] in a time-dependent manner, the inhibitor was called reversible (abbreviation “rev”). […]

Molecule	Activity DeltaE/24 min μg Protein [DeltaE/24 min μg Protein]	tolerance (pI50) DKN	tolerance (pI50) MST	tolerance (pI50) Cmpd. 2	tolerance (pI50) TBT
C959: reference PfHPPD mutant E335P (protein, HPPD variant - C959) MADLYENPMGLMGFEFIEFASPTPGTLEPIFEIMGFTKVATHRSKNVHLYRQGEINLILNNEPNSIASYFAAEHGPSVCGMAFRVKDSQKAYNRALELGAQPIHIDTGPMELNLPAIKGIGGAPLYLIDRFGEGSSIYDIDFVYLEGVERNPVGAGLKVIDHLTHNVYRGRMVYWANFYEKLFNFREARYFDIKGEYTGLTSKAMSAPDGMIRIPLNEESSKGAGQIEEFLMQFNGEGIQHVAFLTDDLVKTWDALKKIGMRFMTAPPDTYYEMLEGRLPDHGEPVDQLQARGILLDGSSVEGDKRLLLQIFSETLMGPVFFEFIQRKGDDGFGPGNFKALFESIERDQVRRGVLTAD	0.09	5.5	>5.6		
K406: PfHPPD variant A188G, R189G, P215N, E335P, G336F, A340E (protein, HPPD variant - K406, PfHPPD variant A188G, R189G, P215N, E335P, G336F, A340E) MADLYENPMGLMGFEFIEFASPTPGTLEPIFEIMGFTKVATHRSKNVHLYRQGEINLILNNEPNSIASYFAAEHGPSVCGMAFRVKDSQKAYNRALELGAQPIHIDTGPMELNLPAIKGIGGAPLYLIDRFGEGSSIYDIDFVYLEGVERNPVGAGLKVIDHLTHNVYRGRMVYWANFYEKLFNFREGGYFDIKGEYTGLTSKAMSAPDGMIRINLNEESSKGAGQIEEFLMQFNGEGIQHVAFLTDDLVKTWDALKKIGMRFMTAPPDTYYEMLEGRLPDHGEPVDQLQARGILLDGSSVEGDKRLLLQIFSETLMGPVFFEFIQRKGDDGFGPFNFKELFESIERDQVRRGVLTAD	0.52	<2.5	3.5	5.6	4.5
K405: PfHPPD variant A188G, R189C, P215A, E335P, G336F, A340E (protein, HPPD variant - K405, PfHPPD variant A188G, R189C, P215A, E335P, G336F, A340E) MADLYENPMGLMGFEFIEFASPTPGTLEPIFEIMGFTKVATHRSKNVHLYRQGEINLILNNEPNSIASYFAAEHGPSVCGMAFRVKDSQKAYNRALELGAQPIHIDTGPMELNLPAIKGIGGAPLYLIDRFGEGSSIYDIDFVYLEGVERNPVGAGLKVIDHLTHNVYRGRMVYWANFYEKLFNFREGCYFDIKGEYTGLTSKAMSAPDGMIRIALNEESSKGAGQIEEFLMQFNGEGIQHVAFLTDDLVKTWDALKKIGMRFMTAPPDTYYEMLEGRLPDHGEPVDQLQARGILLDGSSVEGDKRLLLQIFSETLMGPVFFEFIQRKGDDGFGPFNFKELFESIERDQVRRGVLTAD	0.16	3.3	3.7	4.9	4.8
PfHPPD: wild-type Pseudomonas fluorescens HPPD, reference protein (protein, Pseudomonas Fluorescens) MADLYENPMGLMGFEFIEFASPTPGTLEPIFEIMGFTKVATHRSKNVHLYRQGEINLILNNEPNSIASYFAAEHGPSVCGMAFRVKDSQKAYNRALELGAQPIHIDTGPMELNLPAIKGIGGAPLYLIDRFGEGSSIYDIDFVYLEGVERNPVGAGLKVIDHLTHNVYRGRMVYWANFYEKLFNFREARYFDIKGEYTGLTSKAMSAPDGMIRIPLNEESSKGAGQIEEFLMQFNGEGIQHVAFLTDDLVKTWDALKKIGMRFMTAPPDTYYEMLEGRLPDHGEPVDQLQARGILLDGSSVEGDKRLLLQIFSETLMGPVFFEFIQRKGDDGFGEGNFKALFESIERDQVRRGVLTAD	0.76	>5.6	>5.6	>5.6	>5.6
K408: PfHPPD variant A188G, R189D, P215N, E335P, G336F, A340E (protein, HPPD variant - K408, PfHPPD variant A188G, R189D, P215N, E335P, G336F, A340E) MADLYENPMGLMGFEFIEFASPTPGTLEPIFEIMGFTKVATHRSKNVHLYRQGEINLILNNEPNSIASYFAAEHGPSVCGMAFRVKDSQKAYNRALELGAQPIHIDTGPMELNLPAIKGIGGAPLYLIDRFGEGSSIYDIDFVYLEGVERNPVGAGLKVIDHLTHNVYRGRMVYWANFYEKLFNFREGDYFDIKGEYTGLTSKAMSAPDGMIRINLNEESSKGAGQIEEFLMQFNGEGIQHVAFLTDDLVKTWDALKKIGMRFMTAPPDTYYEMLEGRLPDHGEPVDQLQARGILLDGSSVEGDKRLLLQIFSETLMGPVFFEFIQRKGDDGFGPFNFKELFESIERDQVRRGVLTAD	0.56	<2.5	3.6	5.7	4.6
K299: PfHPPD carrying only the P215L mutation, used as a second reference (protein, HPPD variant - K299) MADLYENPMGLMGFEFIEFASPTPGTLEPIFEIMGFTKVATHRSKNVHLYRQGEINLILNNEPNSIASYFAAEHGPSVCGMAFRVKDSQKAYNRALELGAQPIHIDTGPMELNLPAIKGIGGAPLYLIDRFGEGSSIYDIDFVYLEGVERNPVGAGLKVIDHLTHNVYRGRMVYWANFYEKLFNFREARYFDIKGEYTGLTSKAMSAPDGMIRILLNEESSKGAGQIEEFLMQFNGEGIQHVAFLTDDLVKTWDALKKIGMRFMTAPPDTYYEMLEGRLPDHGEPVDQLQARGILLDGSSVEGDKRLLLQIFSETLMGPVFFEFIQRKGDDGFGEGNFKALFESIERDQVRRGVLTAD	0.17	5.1	5.5	>5.6	>5.6
K407: PfHPPD variant A188G, R189E, P215N, E335P, G336F, A340E (protein, HPPD variant - K407, PfHPPD variant A188G, R189E, P215N, E335P, G336F, A340E) MADLYENPMGLMGFEFIEFASPTPGTLEPIFEIMGFTKVATHRSKNVHLYRQGEINLILNNEPNSIASYFAAEHGPSVCGMAFRVKDSQKAYNRALELGAQPIHIDTGPMELNLPAIKGIGGAPLYLIDRFGEGSSIYDIDFVYLEGVERNPVGAGLKVIDHLTHNVYRGRMVYWANFYEKLFNFREGEYFDIKGEYTGLTSKAMSAPDGMIRINLNEESSKGAGQIEEFLMQFNGEGIQHVAFLTDDLVKTWDALKKIGMRFMTAPPDTYYEMLEGRLPDHGEPVDQLQARGILLDGSSVEGDKRLLLQIFSETLMGPVFFEFIQRKGDDGFGPFNFKELFESIERDQVRRGVLTAD	0.41	<2.5	3.6	5.7	4.6
